Patent US20230364254A1, “METHODS FOR TREATING CANCERS WITH ANTIBODY DRUG CONJUGATES (ADC) THAT BIND TO 191P4D12 PROTEINS” (priority 2020, published 2023)

Test system: patients with locally advanced or metastatic urothelial cancer
Assay: Same phase 2 study: safety (adverse events, NCI CTCAE v4.03)
Type: in vivo, human
Text: Safety assessments will be based on the information collected through the safety surveillance process and will include the data from recorded adverse events (AEs) including SAEs, recording of concomitant medication, physical examination findings, cardiac monitoring, and laboratory tests.
The assessment of safety during the course of this study will consist of the surveillance and recording of AEs including SAEs, recording of concomitant medication, and measurements of protocol-specified physical examination findings, cardiac monitoring, and laboratory tests.
AE severity should be graded using the National Cancer Institute's Common Terminology Criteria for Adverse Events (NCI CTCAE), Version 4.03. These criteria are provided in the study manual.
An overview of AEs will provide a tabulation of the incidence of all AEs, treatment-emergent AEs, treatment-related AEs, Grade 3 and higher AEs. SAEs, treatment-related SAEs, deaths, and AEs leading to study treatment discontinuation. Adverse events will be defined as treatment emergent if they are newly occurring or worsened following study treatment.
AEs will be classified by system organ class and preferred tem using the Medical Dictionary for Regulatory Activities (MedDRA) and graded using NCI CTCAE, Version 4.03.
The incidence of AEs will be summarized by system organ class, preferred term, severity and relationship to study drug. In the event of multiple occurrences of the same AE in one patient, the AE will be counted once as the occurrence for the maximum grade. AEs leading to premature discontinuation of study drug will be summarized and listed in the same manner.

[1] = Cohort 2 (N = 89), additional 3 months follow-up
[2] = Cohort 2 (N = 89), count (percent)
[3] = Cohort 2, additional 3 months follow-up

How did the “TRAEs, Any Grade: Neutropenia” value [1] turn out when “enfortumab vedotin: Nectin-4 directed ADC: fully human anti-nectin-4 IgG1 kappa antibody (AGS-22C3) conjugated to MMAE via protease-cleavable maleimidocaproyl valine-citrulline linker” was run?
The value was 11 (12) n (%).

What about the “TRAEs, Any Grade: Overall” value [1] of the same substance?
The value was 86 (97) n (%).

And the “TRAEs, Any Grade: Peripheral sensory neuropathy” value [1]?
Its value is 44 (49) n (%).

What about the “TRAEs, Any Grade: Pruritus” value [1] of the same substance?
The value was 27 (30) n (%).

What about the “TRAEs, Any Grade: Rash maculo-papular” value [1] of the same substance?
The value was 27 (30) n (%).

And the “TRAEs, Any Grade: nnn Weight decreased” value [1]?
Its value is 23 (26) n (%).

What about the “TRAEs, ≥Grade 3: Anemia” value [1] of the same substance?
Its value is 5 (6) n (%).

What about the “TRAEs, ≥Grade 3: Decreased appetite” value [1] of the same substance?
The value was 5 (6) n (%).

And the “TRAEs, ≥Grade 3: Diarrhea” value [1]?
The value was 5 (6) n (%).

And the “TRAEs, ≥Grade 3: Fatigue” value [1]?
Its value is 6 (7) n (%).

And the “TRAEs, ≥Grade 3: Hyperglycemia” value [1]?
Its value is 5 (6) n (%).

What about the “TRAEs, ≥Grade 3: Lipase increased” value [1] of the same substance?
The value was 5 (6) n (%).

And the “TRAEs, ≥Grade 3: Nausea” value [1]?
Its value is 1 (1) n (%).

What about the “TRAEs, ≥Grade 3: Neutropenia” value [1] of the same substance?
The value was 8 (9) n (%).

What about the “TRAEs, ≥Grade 3: Overall” value [1] of the same substance?
The value was 49 (55) n (%).

What about the “TRAEs, ≥Grade 3: Peripheral sensory neuropathy” value [1] of the same substance?
Its value is 3 (3) n (%).

What about the “TRAEs, ≥Grade 3: Pruritus” value [1] of the same substance?
The value was 3 (3) n (%).

And the “TRAEs, ≥Grade 3: Rash maculo-papular” value [1]?
Its value is 7 (8) n (%).

And the “TRAEs, ≥Grade 3: nnn Weight decreased” value [1]?
The value was 1 (1) n (%).

And the “TEAEs leading to death (excluding disease progression): Acute kidney injury” value [2]?
The value was 2 (2.2).

What about the “TEAEs leading to death (excluding disease progression): Metabolic acidosis” value [2] of the same substance?
The value was 1 (1.1).

What about the “TEAEs leading to death (excluding disease progression): Multiple organ dysfunction syndrome” value [2] of the same substance?
The value was 1 (1.1).

And the “TEAEs leading to death (excluding disease progression): Overall” value [2]?
Its value is 5 (5.6).

And the “TEAEs leading to death (excluding disease progression): Sepsis” value [2]?
The value was 1 (1.1).

And the “Primary Cause of Death, treatment-related death” value (from here on “Primary Cause of Death”) (Cohort 2, Subject 10007-0180, death on study day 15)?
The value was “Metabolic acidosis”.

What about the “Primary Cause of Death” value (Cohort 2, Subject 10013-0190, death on study day 28) of the same substance?
Its value is “Acute kidney injury”.

And the “Primary Cause of Death” value (Cohort 2, Subject 10030-0197, death on study day 25)?
The value was “Multiple organ”.

And the “Primary Cause of Death” value (Cohort 2, Subject 82004-0178, death on study day 203)?
The value was “Pneumonitis”.

What about the “Treatment-related TEAEs of interest: hyperglycemia, all grade” value [3] of the same substance?
The value was 10%.

And the “Treatment-related TEAEs of interest: hyperglycemia, ≥G3” value [3]?
Its value is 6%.

What about the “Treatment-related TEAEs of interest: peripheral neuropathy, all grade” value [3] of the same substance?
Its value is 56%.

And the “Treatment-related TEAEs of interest: peripheral neuropathy, ≥G3” value [3]?
The value was 8%.

And the “Treatment-related TEAEs of interest: rash, all grade” value [3]?
Its value is 61%.

And the “Treatment-related TEAEs of interest: rash, ≥G3” value [3]?
Its value is 17%.

What about the “patients who discontinued treatment due to grade 3 dermatitis bullous” value [3] of the same substance?
The value was “one”.

And the “skin reactions: grade 4 events” value [3]?
Its value is 1.

And the “skin reactions: grade 5 events” value [3]?
Its value is “no grade 5 events”.

And the “treatment-related TEAEs (all-grade): alopecia” value [3]?
The value was 51%.

What about the “treatment-related TEAEs (all-grade): fatigue” value [3] of the same substance?
Its value is 34%.

What about the “treatment-related TEAEs (all-grade): peripheral sensory neuropathy” value [3] of the same substance?
Its value is 49%.

And the “patients with severe cutaneous adverse reactions” value (Cohort 2, irrespective of grade, additional 3 months follow-up)?
The value was 13.

And the rate of hyperglycemia (Cohort 2, patients with preexisting hyperglycemia)?
Its rate of hyperglycemia is 20%.

And the “rate of peripheral neuropathy” value (Cohort 2, patients with preexisting peripheral neuropathy)?
The value was 60%.

What about the rate of hyperglycemia (Cohort 2, patients without preexisting hyperglycemia) of the same substance?
Its rate of hyperglycemia is 7%.

And the “rate of peripheral neuropathy” value (Cohort 2, patients without preexisting peripheral neuropathy)?
Its value is 55%.

And the “patients with severe cutaneous adverse reactions who had grade 3 events” value (Cohort 2, stomatitis, skin exfoliation, dermatitis bullous, dermatitis exfoliative generalized)?
Its value is 4.

What about the “additional treatment-related deaths in the updated analysis” value (Cohort 2, three-month follow-up) of the same substance?
Its value is “No additional treatment-related deaths”.

What about the “AE of special interest, All Grade: Hyperglycemia” value (Total (N = 214)) of the same substance?
The value was 36 (16.8) N (%).

What about the “AE of special interest, All Grade: IRR” value (Total (N = 214)) of the same substance?
The value was 14 (6.5) N (%).

And the “AE of special interest, All Grade: Ocular Events, Blurred Vision” value (Total (N = 214))?
The value was 30 (14.0) N (%).

And the “AE of special interest, All Grade: Ocular Events, Corneal Disorders” value (Total (N = 214))?
Its value is 23 (10.7) N (%).

What about the “AE of special interest, All Grade: Ocular Events, Dry Eye Disorders” value (Total (N = 214)) of the same substance?
The value was 78 (36.4) N (%).

And the “AE of special interest, All Grade: Peripheral Neuropathy” value (Total (N = 214))?
The value was 122 (57.0) N (%).

And the “AE of special interest, All Grade: Rash” value (Total (N = 214))?
The value was 126 (58.9) N (%).

And the “AE of special interest, ≥Gr 3: Hyperglycemia” value (Total (N = 214))?
Its value is 18 (8.4) N (%).

And the “AE of special interest, ≥Gr 3: IRR” value (Total (N = 214))?
The value was 2 (0.9) N (%).

And the “AE of special interest, ≥Gr 3: Peripheral Neuropathy” value (Total (N = 214))?
Its value is 12 (5.6) N (%).

What about the “AE of special interest, ≥Gr 3: Rash” value (Total (N = 214)) of the same substance?
The value was 30 (14.0) N (%).

What about the “Any TEAEs” value (Total (N = 214)) of the same substance?
The value was 214 (100.0) n (%).

And the “Any TEAEs leading to death” value (Total (N = 214))?
Its value is 15 (7.0) n (%).

What about the “Any TEAEs leading to treatment discontinuation” value (Total (N = 214)) of the same substance?
The value was 38 (18.2) n (%).

And the “Any grade 3-5 TEAEs” value (Total (N = 214))?
The value was 155 (72.4) n (%).

What about the “Any serious TEAEs” value (Total (N = 214)) of the same substance?
Its value is 94 (43.9) n (%).

And the “SAEs (All): Acute kidney injury” value (Total (N = 214))?
The value was 13 (6.1) n (%).

And the “SAEs (All): Cellulitis” value (Total (N = 214))?
Its value is 6 (2.8) n (%).

And the “SAEs (All): Diarrhoea” value (Total (N = 214))?
The value was 6 (2.8) n (%).

What about the “SAEs (All): Febrile neutropenia” value (Total (N = 214)) of the same substance?
The value was 6 (2.8) n (%).

And the “SAEs (All): Nausea” value (Total (N = 214))?
Its value is 5 (2.3) n (%).

What about the “SAEs (All): Overall” value (Total (N = 214)) of the same substance?
The value was 94 (43.9) n (%).

What about the “SAEs (All): Pneumonia” value (Total (N = 214)) of the same substance?
Its value is 6 (2.8) n (%).

And the “SAEs (All): Sepsis” value (Total (N = 214))?
Its value is 8 (3.7) n (%).

And the “SAEs (All): Urinary tract infection” value (Total (N = 214))?
The value was 9 (4.2) n (%).

What about the “SAEs (Related): Acute kidney injury” value (Total (N = 214)) of the same substance?
The value was 4 (1.9) n (%).

And the “SAEs (Related): Cellulitis” value (Total (N = 214))?
Its value is 2 (0.9) n (%).

What about the “SAEs (Related): Diarrhoea” value (Total (N = 214)) of the same substance?
Its value is 3 (1.4) n (%).

And the “SAEs (Related): Febrile neutropenia” value (Total (N = 214))?
Its value is 6 (2.8) n (%).

And the “SAEs (Related): Nausea” value (Total (N = 214))?
The value was 4 (1.9) n (%).

And the “SAEs (Related): Overall” value (Total (N = 214))?
The value was 39 (18.2) n (%).

What about the “SAEs (Related): Pneumonia” value (Total (N = 214)) of the same substance?
The value was 1 (0.5) n (%).

What about the “Treatment-related AE leading to discontinuation: Acute kidney injury” value (Total (N = 214)) of the same substance?
The value was 2 (0.9) n (%).

And the “Treatment-related AE leading to discontinuation: Asthenia” value (Total (N = 214))?
The value was 1 (0.5) n (%).

What about the “Treatment-related AE leading to discontinuation: Dermatitis bullous” value (Total (N = 214)) of the same substance?
Its value is 1 (0.5) n (%).

What about the “Treatment-related AE leading to discontinuation: Drug eruption” value (Total (N = 214)) of the same substance?
The value was 1 (0.5) n (%).

And the “Treatment-related AE leading to discontinuation: Enterocolitis” value (Total (N = 214))?
Its value is 1 (0.5) n (%).

What about the “Treatment-related AE leading to discontinuation: Fatigue” value (Total (N = 214)) of the same substance?
Its value is 1 (0.5) n (%).

And the “Treatment-related AE leading to discontinuation: Hyperglycaemia” value (Total (N = 214))?
Its value is 1 (0.5) n (%).

What about the “Treatment-related AE leading to discontinuation: Interstitial lung disease” value (Total (N = 214)) of the same substance?
Its value is 1 (0.5) n (%).

What about the “Treatment-related AE leading to discontinuation: Lipase increased” value (Total (N = 214)) of the same substance?
Its value is 2 (0.9) n (%).

And the “Treatment-related AE leading to discontinuation: Metabolic acidosis” value (Total (N = 214))?
Its value is 1 (0.5) n (%).
